B1: PD-1 variant polypeptide, clone S5.1g (receptor)
chain: NPPTFSPALLVVTEGDNATFTCSFSNASESFVLNWYRMSPSDQTDKLAAFPEDRGQLGQDSRFRVTQLPNGRDFHMSVVRARRNDSGTYLCGAISLAPKIQIKESLRAELRVTERRAE
B2: PD-1 variant polypeptide, clone S5.2q (receptor)
chain: SPPTLSPALLVVTEGDNVTFTCSFSNTSESFVLNWYRMSPSNQTDKLAAFPEDRGQPGRDSRFRVTQLPNGRDFHMSVVRARRNDSGTYLCGAISLAPKVQIKESLRAELRVTERRAE
B3: PD-1 variant polypeptide, clone S5.2d (receptor)
chain: NPPTFSPALLVVTEGDNATFTCSFSNTSESFVLNWYRMSPSDQTDKLAAFPEDRSRPGQDSRFRVTQLPNGRDFHMSVVGARRNDSGTYLCGAISLAPKVQIRESLRAELRVTERRAE
B4: PD-1 variant polypeptide, clone S5.1p (receptor)
chain: DPPTFSPALLVVTEGDNATFTCSFSNTSESFVLNWYRMSPSNQTDKLAAFPEDRSQPGQDSRFRVTQLPNGRDFHMSVVRARRNDSGTYLCGAILLAPRIQIRESLGAELRVTEKGAE
B5: PD-1 variant polypeptide, clone S5.2s (receptor)
chain: NPPTFSPALLVVTEGDNATFTCSFSNTSESFVLNWYRMSPSSQTDKLAAFPEDRSQPGQDSRFRVTQLPNGRDFHMSVVRARRSDSGTYLCGVISLAPKVQIKESLRAELRVIERRAE
B6: PD-1 variant polypeptide, clones S5.1j, S5.1o (receptor)
chain: NPPTFSPALLVVTEGDNATFTCSFSNTSESFVLNWYRMSPSNQTDKLAAFPEDRSQPGQDSRFRVTQLPNGRDFHMSVVRARRNDSGTYLCGAISLAPKVQIKESLRVELRVTERRAE
B7: PD-1 variant polypeptide, clone S5.1e (receptor)
chain: NPPTFSPALLVVTEGDNATFTCSFSNTSESFVLNWYRMSPSNQTDKLAAFPEDRSQPGQDSRFRVTQLPNGRDFHMSVVRARRSDSGTYLCGAISLAPKVQIKESLRAELRVIERRAE
B8: PD-1 variant polypeptide, clone S5.1k (receptor)
chain: DPPTFSPALLVVTEGDNATFTCSFSNTSESFVLNWYRMSPSNQTDKLAAFPEDRSQPGQDSRFRVTQLPNGRDFHMSVVRARRDDSGTYLCGAISLAPKIQIKESLRAELRVTERRAE
B9: PD-1 variant polypeptide, clone S5.1c (receptor)
chain: NPPTFSPALLVVTEGDNATFTCSFSNTSESFVLNWYRMSPSNQTDKLAAFPEDRGQPGQDSRFRVIQLPNGRDFHMSVVRARRNDSGTYLCGAISLAPKVQIKESLRAELRVTERRAE
B10: PD-1 variant polypeptide, clone S5.1q (receptor)
chain: NPPTFSPALLVVTEGDNATFTCSFSNTSESFVLNWYRMSPSNQTDKLAAFPEDRSQLGQDSRFRVTQLPNGRDFHMSVVRARRNDSGTYLCGAISLAPKVQIRESLRVELRVTERRAE
B11: PD-1 variant polypeptide, clone S5.1n (receptor)
chain: NPPTFSPALLVVTEGDNATFTCSFSNTSESFVLNWYRMSPSNQTDKLAAFPEDRSQPGQDSRFRVTQLPNGRDFHMSVVRARGDDSGTYLCGAISLAPKVQIKESLRVELRVTERRAE
B12: PD-1 variant polypeptide, clone S5.2i (receptor)
chain: NPPTFSPALLVVAEGDNATFTCSFSNTSESFVLNWYRMSPSNQTDKLAAFPEDRSQPGQDRRFRVTQLPSGRDFHMSVVRARRNDSGTYLCGAIFLAPRIQIKESLRAELRVTERRAE
B13: PD-1 variant polypeptide, clone S5.1i (receptor)
chain: NPPTFSPALLVVTEGDNATFTCSFSNTSESFVLNWYRMSPSNQTDKLAAFPEDRSQPGQDSRFRVTQLPNGRDFRMSVVRARRSDSGTYLCSAISLAPKVQIKESLRAELRVTERRAE
B14: PD-1 variant polypeptide, clone S5.1f (receptor)
chain: NPPTFSPALLVVTEGDNATFTCSFSNTSESFVLNWYRVSPSNQTDKLAAFPEDRSRPGQDSRFRVTRLPNGRDFHMSVVGARRSDSGTYLCGAISLAPKVQIKESLRAELRVTERRAE
B15: PD-1 variant polypeptide, clone S6.8.3 (receptor)
chain: NPPTFSPALLVVTEGDNATFTCSFSNTSESFVLNWYRMSPSNQTDKLAAFPEDRGQLGQASRFRVTQLPNGRDFHMSVVRARRSDSGTYLCSAILLAPRIQIRESLRVELRVTERRAE
B16: PD-1 variant polypeptide, clone S5.7 (receptor)
chain: NPPTFSPALLVVTEGDNATFTCSFSNTSESFVLNWYRMSPSNQTDKLAAFPEDRGQLGQDSRFRVTQLPNGRDFHMSVVRARRSDSGTYLCSAILLAPKIQIKESLRVELRVTERRAE
B17: PD-1 variant polypeptide, clone S6.12.9 (receptor)
chain: NPPTFSPALLVVTEGDNATFTCSFSNTSESFVLNWYRMSPSNQTDKLAAFPEDRGQLGQDSRFRVTQLPNGRDFHMSVVRARRSDSGTYLCSAIVLAPRIQIKESLRVELRVTERRAE
B18: PD-1 variant polypeptide, clone S6.12.6 (receptor, not shown: large carriers)
chain: NPPTFSPALLVVTEGDNATFTCSFSNTSESFVLNWYRISPSNQTDKLAAFPEDRGQLGQDSRFRVTQLPNGRDFHMSVVRARRSDSGTYLCSAILLAPRIQIRESLGVELRVTEKRAE
B19: PD-1 variant polypeptide, clone S5.1 (receptor)
chain: NPPTFSPALLVVTEGDNATFTCSFSNTSESFVLNWYRMSPSNQTDKLAAFPEDRGQLGQDSRFRVTQLPNGRDFHMSVVRARRSDSGTYLCSAIVLAPKIQIKESLRVELRVTERRAE
B20: PD-1 variant polypeptide, clone S5.4 (receptor)
chain: NPPTFSPALLVVTEGDNATFTCSFSNTSESFVLNWYRMSPSNQTDKLAAFPEDRGQPGRDSRFRVTQLPNGRDFRMSVVRARRSDSGTYLCSAILLAPKIQIKESLGAELRVTEKGAE

target: T1, human PD-L1-Fc chimeric protein (human, UniProt Q9NZQ7 19-238); experiment: yeast display, clone sequenced from the pool after five FACS sorts on PD-L1-Fc; measured as a pool, not singly
T1 construct: extracellular domain; Recombinant protein; also called soluble PD-L1-Fc; not shown: Fc region of human IgG1, fused at the C-terminus
Description: In these sorts, yeast were incubated at room temperature in phosphate-buffered saline with 1 mg/ml BSA (PBSA) and with the following nominal concentrations of PD-L1-Fc: for sort 1, 250 nM; sort 2, 20 nM; sort 3, 1 nM; sort 4, 0.1 nM; sort 5, 0.1 nM. PD-L1 Fc refers to a human PD-L1-Fc chimeric protein. This recombinant protein contains the extracellular domain of human PD-L1 fused to the Fc region of human IgG1 at the C-terminus. After incubation with PD-L1-Fc, yeast were pelleted, washed, and resuspended in PBSA with chicken anti-cMYC for 1 hour at 4° C. After primary antibody incubation, yeast were once again washed and secondary labeling was performed on ice for 30 minutes using PBSA with goat anti-chicken Alexa Fluor 555 and goat anti-human IgG Alexa Fluor 488. Each sort was conducted such that the 1-3% of clones with the highest PD-L1 binding/cMyc expression ration were selected, thereby enriching the library for clones with the highest affinity. In the first round, 1×10⁸ cells were screened, and in subsequent rounds a minimum of ten-fold the number of clones collected in the prior sort round were screened to ensure adequate sampling of diversity.
Samples were analyzed using a FACScalibur flow cytometer and data was analyzed using FlowJo software.

T1 sequence (Q9NZQ7 19-238, change not shown): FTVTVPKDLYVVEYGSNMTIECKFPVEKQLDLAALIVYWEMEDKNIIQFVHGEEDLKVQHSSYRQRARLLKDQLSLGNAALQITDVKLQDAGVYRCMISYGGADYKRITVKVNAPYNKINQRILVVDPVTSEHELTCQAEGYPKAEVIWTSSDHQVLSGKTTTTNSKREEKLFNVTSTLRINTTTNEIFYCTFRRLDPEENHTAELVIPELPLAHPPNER

Binding result, binds:
B1, B2, B3, B4, B5, B6, B7, B8, B9, B10, B11, B12, B13, B14

target: T1, human PD-L1-Fc chimeric protein; experiment: flow cytometry of yeast-displayed clone, FIG. 2 (0.5 nM PD-L1-Fc) and FIG. 3 (5 nM, also bound strongly)
Description: (§1) Binding was allowed to proceed for 3 hours at room temperature at which time yeast were pelleted, washed twice to remove unbound PD-L1-Fc, and stained with a fluorescently labeled secondary antibody to detect the Fc of bound PD-L1. Secondary labeling was performed for 30 minutes on ice, after which yeast were pelleted and washed as described. Yeast samples were then analyzed on a flow cytometer to quantify PD-L1-Fc binding.
(§2) FIG. 4 provides a graph of the FACS data.

Binding result, binds:
B15, B16, B17, B18

target: T1, human PD-L1-Fc chimeric protein; experiment: flow cytometry of yeast-displayed clone with soluble PD-L1-Fc (S5.1 tested at 0.5 nM only, see paragraph 221)
Description: as §1, §2

Binding result, binds:
B19

target: T1, human PD-L1-Fc chimeric protein; experiment: flow cytometry of yeast-displayed clone with soluble PD-L1-Fc at 5 nM or 0.5 nM
Description: as §1, §2

Binding result, binds:
B20

From patent publication US20180125934A1 (Stanford University, published 2018)
